Laboratory results published in publication PMC10063554.
Blank lines part the entries; values can stand above or below the substance they belong to.

Tests used:
[1] = molecular target: SNAP-tagged wild-type human PTH1R (human) (UniProt Q03431); assay: AlphaScreen or HTRF; crude membrane fractions (0.2–1 µg per well) of HEK293T cells with SNAP-Lumi4-Tb-labelled PTH1R, without mini-Gs; labeled M-PTH(1–14) tracer with unlabeled M-PTH(1–14); 4 h on ice
[2] = molecular target: SNAP-tagged wild-type human PTH1R (human) (UniProt Q03431); assay: AlphaScreen or HTRF; binding of 40 nM M-PTH(1–14) to membrane fractions supplemented with increasing concentrations of mini-Gs; data relative to PTH1R without mini-Gs; EC50 of mini-Gs read through ligand occupancy, apparent

fold increase in affinity, membrane fractions against whole cells [1]: 5 fold
Substance: Human [Ac5c^1, Aib^3, Q^10, Har^11, A^12, W^14]PTH(1–14) (peptide)

fold increase of fractional binding with increasing mini-Gs [2]: < 2 fold
Substance: M-PTH(1–14) labeled at K^13 with HiLyte dye 647 (peptide)

Substance: Mini-Gs 393
EC50 [2]: 1.39 µM
